Reference: patent publication US20140087995A1 (published 2014)
Numbered stars: 1 amine (or outer) side, 2 acyl side, 3 side chain; on linkers, the order of the positions; unused ones are H or OH. Bridge positions count the residues as written; N and C are the ends. Side chains are listed from the residue outwards. Ends that are not written are not given here. * marks the point of attachment. C20 diacid = O=C(O)CCCCCCCCCCCCCCCCCCC(=O)*; γGlu = O=C(O)[C@H](CCC(=O)[*:2])N[*:1]; AEEA = NCCOCCOCC(=O)O

T1: human amylin receptor (amylin 3(a) receptor: human calcitonin receptor plus RAMP-3) (human, UniProt P30988 25-474; O60896 24-148)
T1 sequence (looked up) 1: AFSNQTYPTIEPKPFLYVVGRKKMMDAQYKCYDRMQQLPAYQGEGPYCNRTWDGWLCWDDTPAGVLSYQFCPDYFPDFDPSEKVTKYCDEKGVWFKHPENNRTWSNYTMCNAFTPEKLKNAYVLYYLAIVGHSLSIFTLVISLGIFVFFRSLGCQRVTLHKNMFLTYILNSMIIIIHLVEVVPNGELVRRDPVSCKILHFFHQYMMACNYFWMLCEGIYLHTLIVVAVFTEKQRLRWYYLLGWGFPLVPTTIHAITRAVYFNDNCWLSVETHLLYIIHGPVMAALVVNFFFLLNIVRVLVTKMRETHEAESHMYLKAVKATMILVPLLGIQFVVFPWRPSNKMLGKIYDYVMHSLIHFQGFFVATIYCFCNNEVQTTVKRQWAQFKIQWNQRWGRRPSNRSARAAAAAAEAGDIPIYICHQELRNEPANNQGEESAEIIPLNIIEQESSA
T1 sequence (looked up) 2: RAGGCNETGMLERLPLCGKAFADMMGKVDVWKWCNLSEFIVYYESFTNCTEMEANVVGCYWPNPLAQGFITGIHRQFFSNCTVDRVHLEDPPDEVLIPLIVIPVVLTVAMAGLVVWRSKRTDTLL

T2: human calcitonin receptor (human, UniProt P30988 25-474)
T2 sequence (looked up): T1 sequence (looked up) 1

T3: human amylin 3(a) receptor (human calcitonin receptor co-expressed with RAMP-3) (human, UniProt P30988 25-474; O60896 24-148, limits assumed)
T3 sequence (looked up) 1: T1 sequence (looked up) 1
T3 sequence (looked up) 2: T1 sequence (looked up) 2

T4: human calcitonin receptor (human, UniProt P30988 25-474)
T4 sequence (looked up): T1 sequence (looked up) 1

T5: rat calcitonin receptor (rat, UniProt P32214 25-516)
T5 construct: whole, on cells; In cell membranes prepared from transiently transfected BHK tk'ts 13 cells (Assay VIII); also called rCTR; rat calcitonin (a) receptor
T5 sequence (looked up): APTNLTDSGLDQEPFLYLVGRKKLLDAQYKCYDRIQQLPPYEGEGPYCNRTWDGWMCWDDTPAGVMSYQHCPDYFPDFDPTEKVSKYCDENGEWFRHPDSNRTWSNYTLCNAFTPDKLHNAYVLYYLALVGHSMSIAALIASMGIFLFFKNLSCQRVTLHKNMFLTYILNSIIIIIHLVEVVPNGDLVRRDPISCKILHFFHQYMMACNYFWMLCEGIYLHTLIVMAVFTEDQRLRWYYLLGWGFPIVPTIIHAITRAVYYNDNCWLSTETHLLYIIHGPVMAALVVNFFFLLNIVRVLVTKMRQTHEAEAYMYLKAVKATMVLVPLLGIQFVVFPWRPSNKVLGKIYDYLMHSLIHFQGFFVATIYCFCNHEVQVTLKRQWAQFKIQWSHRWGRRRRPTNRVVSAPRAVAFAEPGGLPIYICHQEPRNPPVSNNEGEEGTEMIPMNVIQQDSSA

B1: N^-1-[(4S)-4-carboxy-4-(19-carboxynonadecanoylamino)butanoyl]-Gly[Arg1,Arg17,Pro21,Pro27,His35]-h-amylin (peptide)
peptide: {C20 diacid-γGlu}-GRCNTATCATQRLANFLRHSSPNFGAIPSSTNVGSHTY-NH2
modifications: disulfide 3-8
SMILES: CC[C@H](C)[C@H](NC(=O)[C@H](C)NC(=O)CNC(=O)[C@H](Cc1ccccc1)NC(=O)[C@H](CC(N)=O)NC(=O)[C@@H]1CCCN1C(=O)[C@H](CO)NC(=O)[C@H](CO)NC(=O)[C@H](Cc1c[nH]cn1)NC(=O)[C@H](CCCNC(=N)N)NC(=O)[C@H](CC(C)C)NC(=O)[C@H](Cc1ccccc1)NC(=O)[C@H](CC(N)=O)NC(=O)[C@H](C)NC(=O)[C@H](CC(C)C)NC(=O)[C@H](CCCNC(=N)N)NC(=O)[C@H](CCC(N)=O)NC(=O)[C@@H](NC(=O)[C@H](C)NC(=O)[C@@H]1CSSC[C@H](NC(=O)[C@H](CCCNC(=N)N)NC(=O)CNC(=O)CC[C@H](NC(=O)CCCCCCCCCCCCCCCCCCC(=O)O)C(=O)O)C(=O)N[C@@H](CC(N)=O)C(=O)N[C@@H]([C@@H](C)O)C(=O)N[C@@H](C)C(=O)N[C@@H]([C@@H](C)O)C(=O)N1)[C@@H](C)O)C(=O)N1CCC[C@H]1C(=O)N[C@@H](CO)C(=O)N[C@@H](CO)C(=O)N[C@H](C(=O)N[C@@H](CC(N)=O)C(=O)N[C@H](C(=O)NCC(=O)N[C@@H](CO)C(=O)N[C@@H](Cc1c[nH]cn1)C(=O)N[C@H](C(=O)N[C@@H](Cc1ccc(O)cc1)C(N)=O)[C@@H](C)O)C(C)C)[C@@H](C)O
notes: N-terminal extension by Gly at position -1; also called compound 47
B2: N^α1-[(4S)-4-carboxy-4-[[(4S)-4-carboxy-4-(19-carboxynonadecanoylamino)butanoyl]amino]butanoyl]-[Glu14,Arg17,Pro21,Pro27]-h-amylin (peptide)
peptide: {C20 diacid-γGlu-γGlu}-KCNTATCATQRLAEFLRHSSPNFGAIPSSTNVGSNTY-NH2
modifications: disulfide 2-7
SMILES: CC[C@H](C)[C@H](NC(=O)[C@H](C)NC(=O)CNC(=O)[C@H](Cc1ccccc1)NC(=O)[C@H](CC(N)=O)NC(=O)[C@@H]1CCCN1C(=O)[C@H](CO)NC(=O)[C@H](CO)NC(=O)[C@H](Cc1c[nH]cn1)NC(=O)[C@H](CCCNC(=N)N)NC(=O)[C@H](CC(C)C)NC(=O)[C@H](Cc1ccccc1)NC(=O)[C@H](CCC(=O)O)NC(=O)[C@H](C)NC(=O)[C@H](CC(C)C)NC(=O)[C@H](CCCNC(=N)N)NC(=O)[C@H](CCC(N)=O)NC(=O)[C@@H](NC(=O)[C@H](C)NC(=O)[C@@H]1CSSC[C@H](NC(=O)[C@H](CCCCN)NC(=O)CC[C@H](NC(=O)CC[C@H](NC(=O)CCCCCCCCCCCCCCCCCCC(=O)O)C(=O)O)C(=O)O)C(=O)N[C@@H](CC(N)=O)C(=O)N[C@@H]([C@@H](C)O)C(=O)N[C@@H](C)C(=O)N[C@@H]([C@@H](C)O)C(=O)N1)[C@@H](C)O)C(=O)N1CCC[C@H]1C(=O)N[C@@H](CO)C(=O)N[C@@H](CO)C(=O)N[C@H](C(=O)N[C@@H](CC(N)=O)C(=O)N[C@H](C(=O)NCC(=O)N[C@@H](CO)C(=O)N[C@@H](CC(N)=O)C(=O)N[C@H](C(=O)N[C@@H](Cc1ccc(O)cc1)C(N)=O)[C@@H](C)O)C(C)C)[C@@H](C)O
notes: h-amylin derivative; disulfide bridge and C-terminal amide as told for human amylin; also called compound 15
B3: N^ε1-[2-[2-[2-[[(4S)-4-carboxy-4-(19-carboxynonadecanoylamino)butanoyl]amino]ethoxy]ethoxy]acetyl]-[Arg17,Pro21,Pro27,Pro28,Pro31]-h-amylin (peptide)
peptide: K([AEEA-γGlu-C20 diacid])CNTATCATQRLANFLRHSSPNFGAIPPSTPVGSNTY-NH2
modifications: disulfide 2-7
notes: h-amylin derivative; disulfide bridge and C-terminal amide as told for human amylin; also called compound 53
B4: N^ε1-[2-[2-[2-[[(4S)-4-carboxy-4-(19-carboxynonadecanoylamino)butanoyl]amino]ethoxy]ethoxy]acetyl]-[Arg17,Pro21,Pro27,Pro28,Pro34]-h-amylin (peptide)
peptide: K([AEEA-γGlu-C20 diacid])CNTATCATQRLANFLRHSSPNFGAIPPSTNVGPNTY-NH2
modifications: disulfide 2-7; N-terminus assumed
SMILES: CC[C@H](C)[C@H](NC(=O)[C@H](C)NC(=O)CNC(=O)[C@H](Cc1ccccc1)NC(=O)[C@H](CC(N)=O)NC(=O)[C@@H]1CCCN1C(=O)[C@H](CO)NC(=O)[C@H](CO)NC(=O)[C@H](Cc1c[nH]cn1)NC(=O)[C@H](CCCNC(=N)N)NC(=O)[C@H](CC(C)C)NC(=O)[C@H](Cc1ccccc1)NC(=O)[C@H](CC(N)=O)NC(=O)[C@H](C)NC(=O)[C@H](CC(C)C)NC(=O)[C@H](CCCNC(=N)N)NC(=O)[C@H](CCC(N)=O)NC(=O)[C@@H](NC(=O)[C@H](C)NC(=O)[C@@H]1CSSC[C@H](NC(=O)[C@@H](N)CCCCNC(=O)COCCOCCNC(=O)CC[C@H](NC(=O)CCCCCCCCCCCCCCCCCCC(=O)O)C(=O)O)C(=O)N[C@@H](CC(N)=O)C(=O)N[C@@H]([C@@H](C)O)C(=O)N[C@@H](C)C(=O)N[C@@H]([C@@H](C)O)C(=O)N1)[C@@H](C)O)C(=O)N1CCC[C@H]1C(=O)N1CCC[C@H]1C(=O)N[C@@H](CO)C(=O)N[C@H](C(=O)N[C@@H](CC(N)=O)C(=O)N[C@H](C(=O)NCC(=O)N1CCC[C@H]1C(=O)N[C@@H](CC(N)=O)C(=O)N[C@H](C(=O)N[C@@H](Cc1ccc(O)cc1)C(N)=O)[C@@H](C)O)C(C)C)[C@@H](C)O
notes: h-amylin derivative; disulfide bridge and C-terminal amide as told for human amylin; also called compound 55
B5: N^α1-[(4S)-4-carboxy-4-(19-carboxynonadecanoylamino)butanoyl]-[Glu14,Arg17,Pro21,Pro27,His35]-h-amylin (peptide)
peptide: {C20 diacid-γGlu}-KCNTATCATQRLAEFLRHSSPNFGAIPSSTNVGSHTY-NH2
modifications: disulfide 2-7
SMILES: CC[C@H](C)[C@H](NC(=O)[C@H](C)NC(=O)CNC(=O)[C@H](Cc1ccccc1)NC(=O)[C@H](CC(N)=O)NC(=O)[C@@H]1CCCN1C(=O)[C@H](CO)NC(=O)[C@H](CO)NC(=O)[C@H](Cc1c[nH]cn1)NC(=O)[C@H](CCCNC(=N)N)NC(=O)[C@H](CC(C)C)NC(=O)[C@H](Cc1ccccc1)NC(=O)[C@H](CCC(=O)O)NC(=O)[C@H](C)NC(=O)[C@H](CC(C)C)NC(=O)[C@H](CCCNC(=N)N)NC(=O)[C@H](CCC(N)=O)NC(=O)[C@@H](NC(=O)[C@H](C)NC(=O)[C@@H]1CSSC[C@H](NC(=O)[C@H](CCCCN)NC(=O)CC[C@H](NC(=O)CCCCCCCCCCCCCCCCCCC(=O)O)C(=O)O)C(=O)N[C@@H](CC(N)=O)C(=O)N[C@@H]([C@@H](C)O)C(=O)N[C@@H](C)C(=O)N[C@@H]([C@@H](C)O)C(=O)N1)[C@@H](C)O)C(=O)N1CCC[C@H]1C(=O)N[C@@H](CO)C(=O)N[C@@H](CO)C(=O)N[C@H](C(=O)N[C@@H](CC(N)=O)C(=O)N[C@H](C(=O)NCC(=O)N[C@@H](CO)C(=O)N[C@@H](Cc1c[nH]cn1)C(=O)N[C@H](C(=O)N[C@@H](Cc1ccc(O)cc1)C(N)=O)[C@@H](C)O)C(C)C)[C@@H](C)O
notes: also called compound 18

Columns and labels:
[1] = target: T1, human amylin receptor (amylin 3(a) …); test: cell-based or functional assay
[2] = target: T2, human calcitonin receptor; test: cell-based or functional assay
[3] = target: T1, human amylin receptor (amylin 3(a) …); test: SPA competition, displacement of 125I-rat amylin from membranes of BHK cells with human calcitonin receptor + RAMP-3 (Assay V)
Procedure: The binding assay was performed using scintillation proximity assay (SPA) beads (RPNQ0001) from PerkinElmer and cell membranes from the Amylin 3(a)/CRE-luc cells (as described in Assay (II)) were used. Membranes were prepared in the following way; the cells were rinsed with PBS and incubated with Versene for approximately 5 min before harvesting. The cells were flushed with PBS and the cell-suspension was centrifuged for 5 min at 1000 rpm. Cells were homogenized (ultrathurrax) in a buffer containing 20 mM Na-HEPES and 10 mM EDTA (pH 7.4) and centrifuged at 20.000 rpm for 15 min. The resulting pellet was resuspended, homogenized and centrifuged (20.000 rpm, 15 min) in a buffer containing 20 mM Na-HEPES and 0.1 mM EDTA (pH 7.4, buffer 2). The resulting pellet was resuspended in buffer 2 and protein concentration was measured (BCA protein Assay, Pierce). The homogenate was kept cold during the whole procedure. The membranes were kept at −80° C. until use. The assay was performed in a 384 well Optiplate (PerkinElmer) in a total volume of 40 ul. Membranes were mixed with SPA beads. Final concentration of membranes 35 ng/μL final and SPA beads was 0.05 mg/well. Test-compounds were dissolved in DMSO and further diluted in assay buffer (50 mM Hepes, pH 7.4, 1 mM CaCl2, 5 mM MgCl₂, 0.1% OA and 0.02% Tween20). […] The final mixture was incubated with shaking at 400 rpm for 120 min at 25° C. prior to centrifugation (1500 rpm, 10 min). Samples were analyzed on TopCounter™ (Packard). The IC₅₀ was calculated using (one site binding competition analysis) GraphPad Prism5 as a measure of receptor affinity.

[4] = target: T3, human amylin 3(a) receptor (human …); test: cell-based or functional assay
[5] = target: T4, human calcitonin receptor; test: cell-based or functional assay; remark: listed apart in the source
rat calcitonin receptor = target: T5, rat calcitonin receptor; test: SPA competition binding, displacement of 125I-Calcitonin from membranes of BHK tk'ts 13 cells with rat calcitonin receptor (Assay VIII)

| Ratio hCT/hAmylin funct. [1] | hAmylin-R funct. EC50 (pM) [1] | hCTR funct. EC50 (pM) [2] | IC50 [3] | Ratio hCT/hAmylin funct. [4] | hCTR funct. EC50 [5] | also measured | Binder |
| --- | --- | --- | --- | --- | --- | --- | --- |
| 6 | 222 pM | 1320 pM | 0.344 nM | – | – | – | B1 |
| – | – | – | – | 8.9 | 3430 pM | – | B2 |
| – | – | – | – | 9.8 | 625 pM | – | B3 |
| – | – | – | – | – | 731 pM | hAmylin-R funct. EC50 [4]: 68 pM | B4 |
| 4.8 | 154 pM | 742 pM | 0.554 nM | – | – | – | B5 |
| – | – | – | – | – | – | IC50 (rat calcitonin receptor): 30.9 nM | KCNTATCATQRLADFLRHSSPNFGAIPSSTNVGSRTY-NH2 (disulfide 2-7) [[Asp14,Arg17,Pro21,Pro27,Arg35]-h-amylin] |
